The supplement of paper PMC10126150
± gives the standard deviation of the averaged measurements.

test system: ATP; assay: switch fluorescence ratio, 500 uM ATP over buffer (Cy3 cluster intensity, sum of 5 cycles each) (fold (ratio)); higher = stronger signal-on switching upon ATP binding; sequences stand for … in TCGTCGGCAGCGTCAGATGTGTATAAGAGACAGTTTTTTTTTTTTTTTTTTTTTTTTT…TC; details: aptamer strand: ATP DNA aptamer (quencher-CACCTGGGGGAGTATTGCGGAGGAAGG + anchor), 100 nM annealed; ATP concentration: 500 uM
Method in brief: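 Switching-strand clusters labelled with Cy3 on a modified Illumina MiSeq flow-cell were annealed to 100 nM quencher-labelled ATP aptamer, imaged in selection buffer, and re-imaged after 15 min with 500 uM ATP at 22 °C. This was done over five cycles with NaOH stripping and re-annealing in between. The fluorescence ratio is summed target-cycle over summed buffer-cycle Cy3 intensity per cluster, averaged per switch-domain sequence, excluding clusters outside 100-1000 RFU.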
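Also: ATP exposure 15 min at 22 °C before imaging.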

Sequence	switch fluorescence ratio
TGAGTTATGC	0.953 ± 0.015
TGAGTTCGCA	1.69 ± 0.13
TGAGTTGGGG	0.967 ± 0.016
TGAGTTTTTA	0.9956 ± 0.0072
TGATAAAAAT	0.993 ± 0.027
TGATAATCTT	0.99 ± 0.028
TGATAATTGT	1.01 ± 0.034
TGATACTCGC	1.18 ± 0.12
TGATAGGGGT	1.02 ± 0.05
TGATAGGTCT	0.986 ± 0.03
TGATAGTAGT	1 ± 0.025
TGATAGTCTA	1 ± 0.068
TGATATAGAG	1 ± 0.029
TGATATCTTG	0.9862 ± 0.0028
TGATATTATT	1.02 ± 0.015
TGATATTTTA	0.986 ± 0.035
TGATCAGGGA	1.02 ± 0.021
TGATCGAAGG	0.991 ± 0.034
TGATCGGGGG	0.982 ± 0.064
TGATCTGCAG	1.016 ± 0.0077
TGATGCACGG	1.04 ± 0.021
TGATGCAGAG	1.02 ± 0.018
TGATGCTTT	1.01 ± 0.077
TGATGGATAG	0.995 ± 0.047
TGATGGCAGT	1.02 ± 0.031

Sequence	switch fluorescence ratio
TGATGGCCGA	0.985 ± 0.019
TGATGGGCGG	0.9957 ± 0.008
TGATGGGCGT	0.9801 ± 0.0016
TGATGGGGTG	0.99 ± 0.012
TGATGTGCA	1.01 ± 0.17
TGATGTTACG	0.9871 ± 0.0046
TGATGTTCGA	1 ± 0.028
TGATTACTGG	1.027 ± 0.01
TGATTAGAGT	1.01 ± 0.016
TGATTAGATT	1.01 ± 0.046
TGATTAGTTG	0.993 ± 0.02
TGATTCACTG	0.9907 ± 0.0075
TGATTCAGGT	1 ± 0.024
TGATTCTTAG	0.989 ± 0.023
TGATTGCCGG	0.996 ± 0.02
TGATTGTATG	1.01 ± 0.011
TGATTGTGCA	0.989 ± 0.035
TGATTGTGGC	0.9557 ± 0.0095
TGATTGTTGG	1.01 ± 0.012
TGATTTATAG	1.012 ± 0.009
TGATTTCAGG	0.982 ± 0.062
TGATTTGTTG	0.971 ± 0.011
TGATTTTCCA	0.988 ± 0.021
TGATTTTCTG	1.008 ± 0.002
TGATTTTGTT	1.01 ± 0.018

Sequence	switch fluorescence ratio
TGATTTTTCT	1 ± 0.013
TGCAAACCTA	1.0241 ± 0.00058
TGCAAAGAAA	1.15 ± 0.12
TGCAAAGATT	0.99 ± 0.016
TGCAAATTGG	0.992 ± 0.011
TGCAAGGGGC	1.04 ± 0.04
TGCACATAGG	1.06 ± 0.016
TGCACCAGGA	1.13 ± 0.067
TGCAGATTTA	1.01 ± 0.014
TGCAGCGTTC	1.27 ± 0.053
TGCAGGAATG	2.17 ± 1.6
TGCAGGCTGC	0.989 ± 0.048
TGCAGGGAGG	1.02 ± 0.0064
TGCAGGGCGA	1.004 ± 0.0097
TGCAGGGGGG	1.02 ± 0.039
TGCAGGGGGT	1.09 ± 0.14
TGCAGTATGG	0.997 ± 0.019
TGCAGTCAAG	1.01 ± 0.016
TGCAGTGAAT	0.999 ± 0.026
TGCATGAGCG	1.02 ± 0.032
TGCATGGTGG	0.995 ± 0.01
TGCATGTAGG	1.01 ± 0.034
TGCATTAATT	0.992 ± 0.019
TGCATTGCTA	1.04 ± 0.015
TGCATTGGAG	1.01 ± 0.043

Sequence	switch fluorescence ratio
TGCATTGGG	0.975 ± 0.058
TGCATTGGGA	1.02 ± 0.043
TGCATTTTCG	1.03 ± 0.049
TGCATTTTTT	0.981 ± 0.034
TGCCAGTGGG	1.04 ± 0.068
TGCCATGTGT	1.032 ± 0.0036
TGCCCCCGGT	1.08 ± 0.066
TGCCCGAGCT	1.03 ± 0.1
TGCCCTTGCG	0.9827 ± 0.0046
TGCCGAAGGT	1.03 ± 0.024
TGCCGGACCG	1.02 ± 0.033
TGCCGGGTTC	0.979 ± 0.03
TGCCGTTTGC	0.965 ± 0.029
TGCCTAAGTA	1.02 ± 0.018
TGCCTCGGGG	1.042 ± 0.0049
TGCCTGGGTG	2.74 ± 1.1
TGCCTGTCTA	1.02 ± 0.018
TGCCTTTGTA	0.963 ± 0.013
TGCGAAAGGA	1.01 ± 0.016
TGCGAAATTT	0.965 ± 0.013
TGCGACAGGG	0.988 ± 0.013
TGCGACCGTT	1.01 ± 0.033
TGCGAGGCTT	1.022 ± 0.0058
TGCGAGGTTG	1.01 ± 0.041
TGCGAGTATT	1.038 ± 0.0023

Sequence	switch fluorescence ratio
TGCGAGTGCT	0.976 ± 0.037
TGCGAGTTCT	1 ± 0.014
TGCGATAAGC	1.026 ± 0.01
TGCGCCTACC	1.28 ± 0.058
TGCGCCTTAC	3.37 ± 0.38
TGCGGACAA	0.9948 ± 0.0043
TGCGGGAGTA	1.003 ± 0.0014
TGCGGGCAAG	0.992 ± 0.015
TGCGGGCGTT	0.993 ± 0.013
TGCGGGGTGC	1.02 ± 0.0028
TGCGGTCACT	0.9964 ± 0.0056
TGCGTAAAAT	1.008 ± 0.0028
TGCGTATTCT	0.967 ± 0.045
TGCGTGGGGT	1.01 ± 0.022
TGCGTGTCTT	1.01 ± 0.018
TGCGTTATTA	0.999 ± 0.017
TGCTAATAGG	1.01 ± 0.02
TGCTACACGT	1.01 ± 0.027
TGCTACGTTT	0.991 ± 0.02
TGCTAGAGCT	0.997 ± 0.011
TGCTATAGAG	1.048 ± 0.0012
TGCTATGGC	1.09 ± 0.092
TGCTATTAGG	0.979 ± 0.045
TGCTCAGCTG	1.04 ± 0.026
TGCTCCTGAT	1.02 ± 0.055

Sequence	switch fluorescence ratio
TGCTCGGTTT	0.998 ± 0.045
TGCTCTACGG	1 ± 0.018
TGCTGAAAGA	1.04 ± 0.028
TGCTGAAATG	1.03 ± 0.07
TGCTGCTGAG	0.971 ± 0.016
TGCTGGCCAC	1.01 ± 0.013
TGCTGGGGTC	0.977 ± 0.016
TGCTGGGTGG	1.01 ± 0.02
TGCTGTAACG	1.02 ± 0.017
TGCTGTAAGG	1 ± 0.036
TGCTGTAATA	1.035 ± 0.0031
TGCTGTCTGT	0.9903 ± 0.0058
TGCTGTTAAT	0.9829 ± 0.0089
TGCTGTTGGA	0.953 ± 0.011
TGCTTAAAGT	0.9807 ± 0.0054
TGCTTAGACT	1.18 ± 0.27
TGCTTATCTA	1.016 ± 0.0077
TGCTTATGGG	0.965 ± 0.016
TGCTTATTGG	0.9725 ± 0.0081
TGCTTATTTG	1 ± 0.023
TGCTTCTCGA	0.991 ± 0.031
TGCTTGCTGT	0.991 ± 0.01
TGCTTGGTTT	1.02 ± 0.018
TGCTTTACGC	1.03 ± 0.03
TGCTTTGCCG	1.09 ± 0.072

Sequence	switch fluorescence ratio
TGCTTTTGAT	1 ± 0.048
TGCTTTTTGT	1.02 ± 0.046
TGGAAAAATG	0.991 ± 0.031
TGGAAAAGTT	0.993 ± 0.017
TGGAAAGCTG	1.04 ± 0.025
TGGAAAGGAG	1.02 ± 0.013
TGGAAAGGGT	1.06 ± 0.035
TGGAAATGCC	1.07 ± 0.065
TGGAAGCGGG	1.04 ± 0.07
TGGAAGGGTG	1.05 ± 0.017
TGGAATATGG	1.04 ± 0.021
TGGAATGGGG	1 ± 0.037
TGGAATTTAG	1.013 ± 0.00072
TGGACCCGAT	0.978 ± 0.011
TGGACCTTTT	1.64 ± 0.82
TGGAGAAAGG	1.13 ± 0.29
TGGAGAAGAT	0.978 ± 0.03
TGGAGAAGGT	1.02 ± 0.027
TGGAGAGGTC	0.999 ± 0.022
TGGAGAGTAG	1.01 ± 0.032
TGGAGCAGGG	1.05 ± 0.036
TGGAGCCAGT	1.01 ± 0.041
TGGAGGGAAG	1.03 ± 0.059
TGGAGGGCTC	1.01 ± 0.025
TGGAGGGGGG	0.997 ± 0.086

Sequence	switch fluorescence ratio
TGGAGTAGG	1.01 ± 0.025
TGGAGTAGGG	0.9874 ± 0.0062
TGGAGTGGGG	1 ± 0.025
TGGAGTTTGG	1.15 ± 0.19
TGGATACTTA	1.02 ± 0.013
TGGATAGCGC	1.01 ± 0.011
TGGATCACGG	1.02 ± 0.0054
TGGATCGTAG	0.978 ± 0.011
TGGATCTCAG	0.982 ± 0.012
TGGATGAGTG	0.9822 ± 0.0077
TGGATGGGGA	0.98 ± 0.028
TGGATGTCAG	0.992 ± 0.054
TGGATGTGTG	0.962 ± 0.038
TGGATTATTA	1.02 ± 0.014
TGGATTGGGG	0.978 ± 0.059
TGGATTGTCC	1.03 ± 0.012
TGGATTTAGT	0.9825 ± 0.0084
TGGCACAGGG	1.06 ± 0.016
TGGCAGACTC	1.28 ± 0.013
TGGCAGTCTA	0.979 ± 0.018
TGGCAGTGGT	0.993 ± 0.03
TGGCAGTGTG	1.05 ± 0.019
TGGCATAGGT	1.02 ± 0.03
TGGCATAGTT	0.995 ± 0.042
TGGCCAGGGT	1.06 ± 0.031
